# In the supplement of paper PMC10724198:
# ± gives the standard deviation of the averaged measurements.
# Test system: Saccharomyces cerevisiae
# Test: protein stability index of tFT-peptide fusion (C-terminal peptide) (PSI (0-1 scale)); higher = more stable (slower turnover)
# Conditions: genetic background: wild type; temperature: 30 C
# 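Further: PSI is a weighted mean of sequencing reads over stability bins, variants kept only with over 10 reads, mCherry proximal and sfGFP distal, peptide attached via GGGS linker.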
row,Sequence,protein stability index
1,RAFGQGMGLAFS,0.737 ± 0.0082
2,RAGKEGRVSSSK,0.6619 ± 0.0057
3,RAKRPAGTSTRG,0.604 ± 0.016
4,RALRAGVGVRAC,0.662 ± 0.08
5,RAPPAARIASGL,0.677 ± 0.026
6,RARPGKATSAFH,0.73 ± 0.019
7,RARPPPQLHLSP,0.745 ± 0.012
8,RAYRSTCRCSER,0.669 ± 0.081
9,RCFLFSPCWAFS,0.5889 ± 0.002
10,RCGLVGILCSSI,0.5632 ± 0.004
11,RCGRSVSCLATG,0.696 ± 0.042
12,RCGVGGSVSFWW,0.689 ± 0.05
13,RCHGRVNLAEGE,0.7564 ± 0.00055
14,RCLRYFVWRLGW,0.709 ± 0.12
15,RCLSRLSALGTD,0.624 ± 0.076
16,RCNCTTTTLRSK,0.6046 ± 0.0019
17,RCPDSARRWRVP,0.7111 ± 0.0045
18,RCPVFRCITGGL,0.61 ± 0.031
19,RCTLFGMDQSSA,0.642 ± 0.027
20,RCTRQVHPLTFR,0.66 ± 0.038
21,RCVRLSISILRP,0.586 ± 0.038
22,RCWVTVIRSVRS,0.601 ± 0.067
23,RDELRTSAGKGS,0.659 ± 0.055
24,RDERDWDGSSWA,0.708 ± 0.03
25,RDGRNSKPTYQP,0.667 ± 0.025

row,Sequence,protein stability index
1,RDLVEQTLHIEY,0.667 ± 0.013
2,REEGIEKKEKIR,0.678 ± 0.03
3,REGCYVRGGILL,0.68 ± 0.072
4,REGRTRGTAAER,0.679 ± 0.027
5,REKARNEKRRKT,0.651 ± 0.0075
6,REKEKGYLNKKK,0.743 ± 0.041
7,RELLYLPPPSDP,0.821 ± 0.051
8,REPFCVVGGREG,0.681 ± 0.04
9,RERAQEMGIRNE,0.675 ± 0.031
10,RERRFFPPSGFS,0.71 ± 0.018
11,REWLGCYVFGVR,0.677 ± 0.022
12,RFASVLSLPLSV,0.642 ± 0.13
13,RFCRPLSHTALA,0.632 ± 0.028
14,RFCRSGCWFRWG,0.607 ± 0.015
15,RFFAVSLGGLEF,0.687 ± 0.031
16,RFGGVWRCRGFV,0.696 ± 0.031
17,RFPLPGLISFSS,0.742 ± 0.056
18,RFPSLCVPFLFP,0.678 ± 0.013
19,RFPSRLLVPPPP,0.698 ± 0.077
20,RFRYFSPLSTTS,0.671 ± 0.027
21,RFSKGKPVSAGG,0.632 ± 0.033
22,RFTCYLCLKGLL,0.681 ± 0.052
23,RFVRGEFLWGVC,0.663 ± 0.044
24,RFVTLLSDFFLL,0.681 ± 0.063
25,RFWIVVRRQTRT,0.6447 ± 0.00089

row,Sequence,protein stability index
1,RGACGWVDWWGL,0.856 ± 0.13
2,RGAGYQLFGPPR,0.698 ± 0.037
3,RGARRGAPVCGW,0.71 ± 0.0075
4,RGASKYDGDSRR,0.668 ± 0.016
5,RGATAKGQRRVR,0.686 ± 0.046
6,RGCGAIYRGSCG,0.707 ± 0.021
7,RGCGGGTGDGRG,0.697 ± 0.045
8,RGELSGVRVSVR,0.645 ± 0.043
9,RGFGFAYVSEHI,0.708 ± 0.075
10,RGFGGVLGRVFL,0.725 ± 0.017
11,RGFGSLSKPMCH,0.711 ± 0.012
12,RGFLHVRCRDTC,0.7049 ± 0.0011
13,RGGAGSWDWEAG,0.707 ± 0.028
14,RGGGGAKGEGVR,0.707 ± 0.048
15,RGGGGGSAVEGG,0.635 ± 0.095
16,RGGGGGVWGHVV,0.58 ± 0.02
17,RGGGVVRGCSGG,0.679 ± 0.014
18,RGGRGLECAFYI,0.7903 ± 0.001
19,RGGVGGSVSFWW,0.707 ± 0.072
20,RGGVGWGVFRVS,0.679 ± 0.064
21,RGGWGGGGAAGS,0.649 ± 0.053
22,RGIEQRHFPKGA,0.7 ± 0.011
23,RGKREEQVRGGD,0.622 ± 0.035
24,RGKVVRLLLERM,0.72 ± 0.067
25,RGLVIWRVGGMK,0.66337 ± 0.00065

row,Sequence,protein stability index
1,RGMPMARVRSAG,0.693 ± 0.054
2,RGNAMSFVCVGE,0.658 ± 0.096
3,RGNPLLWHSSPR,0.657 ± 0.051
4,RGPLNPNWPPTD,0.7 ± 0.037
5,RGPPIPTLRYQH,0.746 ± 0.079
6,RGPTGEDLCSAM,0.696 ± 0.032
7,RGPVSQNPEINF,0.732 ± 0.02
8,RGRGGDERSVRG,0.644 ± 0.013
9,RGRGKAGGETTV,0.686 ± 0.035
10,RGRVLDTRDWGP,0.666 ± 0.059
11,RGSCPFQSWRCS,0.59 ± 0.038
12,RGSGEVVLFGVG,0.671 ± 0.057
13,RGSRVDLKLSKK,0.678 ± 0.019
14,RGSWRGLADSGV,0.676 ± 0.08
15,RGTYACGMGGVG,0.654 ± 0.074
16,RGVAGSTLGLRI,0.566 ± 0.069
17,RGVGGREGAAPV,0.691 ± 0.0093
18,RGVIKNKIKRLK,0.768 ± 0.078
19,RGVRGLWGGKRG,0.626 ± 0.015
20,RGWDEHRVGSEY,0.671 ± 0.095
21,RGWKGGLSLGEI,0.586 ± 0.021
22,RGWLSAWDENGK,0.704 ± 0.019
23,RHGTRHKLLGTL,0.659 ± 0.016
24,RHIDSRDPTDSP,0.651 ± 0.081
25,RHLFGTGIMPER,0.683 ± 0.12

row,Sequence,protein stability index
1,RHPLPHNLSPYP,0.78 ± 0.0065
2,RHPSAPRPVPLM,0.695 ± 0.11
3,RHTYSPRAPVPD,0.707 ± 0.025
4,RIEKYKKKKETK,0.712 ± 0.084
5,RIIHIHKLFLRR,0.677 ± 0.071
6,RIKHKNRNKKKN,0.791 ± 0.033
7,RIKQKEEKRNRY,0.779 ± 0.01
8,RILSFVSCYSLL,0.506 ± 0.0035
9,RILVFCPSSFGL,0.64 ± 0.018
10,RINGPLHRLSVA,0.657 ± 0.015
11,RIQYKKKNRKGI,0.628 ± 0.037
12,RITMNMHSLIIP,0.711 ± 0.032
13,RITTVPNSNPGN,0.689 ± 0.08
14,RITVPIGYHSVS,0.6891 ± 0.0009
15,RKAEWIKQYDMH,0.479 ± 0.072
16,RKEGRGEEPEKG,0.65 ± 0.049
17,RKGNHAHEPSCI,0.686 ± 0.0034
18,RKIERKHIKEFS,0.664 ± 0.0089
19,RKIKKRITREKM,0.617 ± 0.082
20,RKKKKKEKKKVE,0.741 ± 0.037
21,RKKKTRGKEKRR,0.683 ± 0.097
22,RKKNVYGKKIKI,0.656 ± 0.083
23,RKKRGKNEERQD,0.707 ± 0.056
24,RKLKQGIVSKKK,0.66 ± 0.052
25,RKLNRKEKLQLT,0.646 ± 0.051

row,Sequence,protein stability index
1,RKNKLKQNKKYR,0.718 ± 0.012
2,RKNYRISYKLLD,0.715 ± 0.02
3,RKRSRQLNRQLK,0.603 ± 0.0074
4,RKTKKKKENKRR,0.7131 ± 0.0043
5,RKTSIKNKKKKI,0.693 ± 0.059
6,RKVTSIESGVMT,0.655 ± 0.038
7,RKVYHSTRNTRK,0.702 ± 0.11
8,RLCFAPRVLPTH,0.604 ± 0.041
9,RLDMKLAIDISR,0.7631 ± 0.0011
10,RLDRARTPPAST,0.779 ± 0.05
11,RLEGNRGPWRQD,0.786 ± 0.1
12,RLFCLRSVSLVS,0.572 ± 0.015
13,RLIHRLLGLFPS,0.69 ± 0.06
14,RLILLPLFLSDS,0.729 ± 0.092
15,RLITGTKLFNGM,0.765 ± 0.045
16,RLKLKSECYSPL,0.667 ± 0.034
17,RLLLRNAASSSS,0.691 ± 0.042
18,RLLPPSPPPPPS,0.667 ± 0.035
19,RLPHPHPVRSLP,0.7 ± 0.022
20,RLPSSPPSATWL,0.6784 ± 0.0019
21,RLPSSSFSPHRA,0.688 ± 0.0069
